Data on one molecule can be found in patent US20180282426A1 (NOVIMMUNE S A, published 2018).

For test [1], the target named is T1, human TLR4/MD-2 complex on the surface of transfected CHO cells (human, UniProt O00206 24-839; Q9Y6Y9 19-160).
T1 construct: whole, on cells; also called TLR4/MD-2 transfected CHO cells; hTLR4/MD-2 transfected CHO cells
Briefly: flow cytometry, mock transfected vs. TLR4/MD-2 transfected cells. In general terms: A flow cytometer gives signals particle by particle.

Test [2] has as its target T2, human TLR4 alone in transfected HEK 293 cells (human, UniProt O00206 24-839).
T2 construct: whole, on cells; also called TLR4 alone in transfected cell lysates
Kind of test: sandwich ELISA, capture on anti-FLAG M2, biotinylated 18H10. As to the method:
(§1) For sample preparation, HEK 293 cells were transfected with the appropriate plasmid constructs using the Fugene 6™ transfection reagent as described in paragraph G above. 48 hours post-transfection, cells were collected and cleared by centrifugation. Cells were subsequently incubated with biotinylated 18H10 (10 μg/ml) and lysed in 20 mM Tris pH 7.4, 150 mM NaCl, 1% NP40 containing COMPLETE™ protease inhibitors (Roche).
(§2) To perform the sandwich ELISA, Nunc maxisorp plate wells were coated with 50 μl of the anti-FLAG™ M2 MAb (Sigma) at a concentration of 5 μg/ml in PBS. Wells were blocked with 200 μl PBS 2% BSA and subsequently incubated with 50 μl of the appropriate samples at the indicated dilution. Wells were washed three times with 200 μl PBS 0.05% Tween 20 and incubated with 50 μl of the appropriate antibody (10 μg/ml for biotinylated 18H10 and 12D4, 1 μg/ml for the polyclonal anti-MD-2 […]). Following a wash step as above, wells were incubated with 50 μl of the appropriate detection antibody (HRP conjugated streptavidin at a dilution of 1:1500 for the biotinylated MAbs and HRP conjugated anti-rabbit IgG (H+L) at a dilution of 1:5000 for the polyclonal rabbit Ab). […] Plates were read at a wavelength of 650 nm.

Test [3] deals with T3, MD-2 alone in transfected HEK 293 cell lysates/supernatants (UniProt Q9Y6Y9 19-160, limits assumed).
T3 construct: not shown: C-terminal FLAG and 6x Histidine tags
T3 sequence (looked up): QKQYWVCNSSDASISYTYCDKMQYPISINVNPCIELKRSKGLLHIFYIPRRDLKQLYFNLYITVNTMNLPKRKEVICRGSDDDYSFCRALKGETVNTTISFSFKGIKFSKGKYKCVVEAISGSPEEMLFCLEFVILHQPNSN
The description is as above. As to the method: as §1, §2

Test [4] addresses T4, human TLR4 and human MD-2 on transiently transfected HEK 293 cells (human, UniProt O00206 24-839; Q9Y6Y9 19-160).
T4 construct: whole, on cells; also called human TLR4/MD-2 complex
Kind of test: FACS on transiently transfected HEK 293 cells. As to the method: FIGS. 4A-4L are a series of graphs depicting the specificity of the 18H10 monoclonal antibody for MD-2. The specificity of the 18H10 antibody is shown by flow cytometry analysis of HEK 293 cells transiently transfected with either human TLR4 and human MD-2 (FIG. 4A, FIG. 4E and FIG. 4I); rabbit TLR4 and rabbit MD-2 (FIG. 4B, FIG. 4F and FIG. 4J); human TLR4 and rabbit MD-2 (FIG. 4C, FIG. 4G and FIG. 4K); or rabbit TLR4 and human MD-2 (FIG. 4D, FIG. 4H and FIG. 4L). Cells were incubated with either α-FLAG™ antibody (to detect TLR4 expression); α-C-myc antibody (to detect MD-2 expression) or the 18H10 monoclonal antibody, followed by an APC-coupled α-mouse (H+L) antibody.
FIGS. 12A-12L is a series of graphs depicting the specificity of the 16G7 monoclonal antibody for TLR4. […]
HEK 293 cells were plated in 6 well plates at a density of 2.5×10⁵ cells/well in 2 ml culture medium containing 10% FBS. […] 48 hours post-transfection, cells were stained with the appropriate monoclonal antibody (as indicated in FIGS. 4A-4L) and an APC-coupled goat anti-mouse IgG (H+L) antibody (Molecular Probes) and analyzed using the FACScalibur in the FL-4 channel.

Test [5] addresses T5, human TLR4/MD-2 complex in transfected HEK 293 cells (FLAG-TLR4 with MD-2-FLAG-6xHis) (human, UniProt O00206 24-839; Q9Y6Y9 19-160).
T5 construct: whole, on cells; also called TLR4/MD-2 transfected HEK 293 cells; hTLR4/MD-2 transfected HEK 293 cells
Briefly: sandwich ELISA, capture on anti-FLAG M2, biotinylated 18H10 with streptavidin-HRP. As to the method:
as §1, §2

Test [6] deals with T6, recombinant soluble MD-2 purified from baculovirus-infected insect cell supernatants (UniProt Q9Y6Y9 19-160).
T6 construct: Expressed in Sf9 cells, purified on NiNTA, coated at 5 ug/ml in the direct ELISA; not shown: C-terminal FLAG and 6xHIS tags
T6 sequence (looked up): T3 sequence (looked up)
Briefly: direct ELISA, MD-2 coated at 5 ug/ml. As to the method: Recombinant soluble MD-2 with C terminal FLAG and histidine epitope tags was coated at a concentration of 5 μg/ml in 50 μl PBS on ELISA plates (Nunc Maxisorp). Wells were blocked with 200 μl PBS 2% BSA and subsequently incubated with the appropriate MAb at the indicated concentration in PBS 1% BSA. Following 3 wash steps with PBS 0.05% Tween 20, 50 μl HRP conjugated goat anti-mouse IgG (H+L) at a 1:5000 dilution was added to the wells. […] Plates were read at a wavelength of 650 nm.
Using direct ELISA, no binding of 18H10 to recombinant soluble MD-2 generated with the baculovirus expression system was detected (FIG. 5a).

T5 sequence (O00206 24-839, one chain of several): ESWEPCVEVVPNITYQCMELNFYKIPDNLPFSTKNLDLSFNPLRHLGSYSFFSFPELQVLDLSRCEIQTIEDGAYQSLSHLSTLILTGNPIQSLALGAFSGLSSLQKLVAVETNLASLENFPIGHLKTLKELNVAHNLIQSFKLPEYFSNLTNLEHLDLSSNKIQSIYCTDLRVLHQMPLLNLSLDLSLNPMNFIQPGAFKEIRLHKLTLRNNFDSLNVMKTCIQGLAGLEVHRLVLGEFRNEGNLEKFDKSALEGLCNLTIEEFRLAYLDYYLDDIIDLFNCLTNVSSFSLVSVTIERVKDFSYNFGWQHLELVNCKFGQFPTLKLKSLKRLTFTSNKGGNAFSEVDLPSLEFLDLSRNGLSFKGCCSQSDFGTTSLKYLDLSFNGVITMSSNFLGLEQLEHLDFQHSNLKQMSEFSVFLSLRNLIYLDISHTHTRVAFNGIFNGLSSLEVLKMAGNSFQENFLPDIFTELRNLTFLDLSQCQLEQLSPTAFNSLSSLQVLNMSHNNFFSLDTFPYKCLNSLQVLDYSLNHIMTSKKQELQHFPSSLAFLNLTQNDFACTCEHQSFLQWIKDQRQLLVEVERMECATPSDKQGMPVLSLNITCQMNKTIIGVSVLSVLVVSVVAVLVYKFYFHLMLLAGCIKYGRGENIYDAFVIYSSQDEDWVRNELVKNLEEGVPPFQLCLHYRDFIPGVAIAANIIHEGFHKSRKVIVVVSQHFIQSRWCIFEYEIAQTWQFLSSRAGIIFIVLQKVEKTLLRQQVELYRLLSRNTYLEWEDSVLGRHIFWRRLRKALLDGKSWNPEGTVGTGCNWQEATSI
T2 sequence (O00206 24-839): as the sequence (O00206 24-839, one chain of several) above
T4 sequence (O00206 24-839, one chain of several): as above
T1 sequence (O00206 24-839, one chain of several): as above

B1: 18H10 monoclonal antibody (antibody, IgG2b, V domains shown)
VH: QVQLQQSGADLVRPGALVKLSCTASGFNIKDSYIHWVKKRPEWGLEWIGWTDPENVNSIYDPRFQGKASITADTSSNTAFLQLTSLTSEDTAVYYCARGYNGVYYAMDYWGQGTTVTVSS
VL: QIVLTQSPSIMSASLGEEITLTCSASSSVIYMHWYQQKSGTSPKLLIYRTYNLASGVPSRFSGSGSGTFYSLTISSVEAEDAADYYCHQWSSFPYTFGGGTKLEIKR
notes: also called 18H10 MAb; 18H10 mouse MAb
For the molecule B1, the binding result is on record as “binds” in test [1]; “no binding (tested: 10 µg/ml biotinylated 18H10)” in test [2]; “no binding (tested: 10 µg/ml biotinylated 18H10)” in test [3]; “binds” in test [4]; “binds” in test [5]; “no binding” in test [6].
